In the supplement of paper PMC12667976:
± gives the standard error.

B1: library; numbered along this chain (parent)
chain: MATDAALRRLLRLHRTEIAVAVDSAFPLLHALADHDVVPEDKFQETLHLKEKEGCPQAFHALLSWLLTQDSTAILDFWRVLFKDYNLERYGRLQPILDSFPKDVDLSQPRKGRKPPAVPKALVPPPRLPTKRKASEEARAAAPAALTPRGTASPGSQLKAKPPKKPESSAEQQRLPLGNGIQTMSASVQRAVAMSSGDVPGARGAVEGILIQQVFESGGSKKCIQVGGEFYTPSKFEDSGSGKNKARSSSGPKPLVRAKGAQGAAPGGGEARLGQQGSVPAPLALPSDPQLHQKNEDECAVCRDGGELICCDGCPRAFHLACLSPPLREIPSGTWRCSSCLQATVQEVQPRAEEPRPQEPPVETPLPPGLRSAGEEVRGPPGEPLAGMDTTLVYKHLPAPPSAAPLPGLDSSALHPLLCVGPEGQQNLAPGARCGVCGDGTDVLRCTHCAAAFHWRCHFPAGTSRPGTGLRCRSCSGDVTPAPVEGVLAPSPARLAPGPAKDDTASHEPALHRDDLESLLSEHTFDGILQWAIQSMARPAAPFPS

Variants of: B1
Experiment: AIRE transcriptional activation functional score (insulin promoter-GFP; nonsense median 0, synonymous median 1) (normalised score); higher = higher AIRE activity (more reporter activation)
Conditions: with insulin promoter-GFP reporter in HEK293
Description: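 Deep mutational scan of full-length human AIRE (codon-optimized cDNA, DT-POPCode NNN libraries over three regions) integrated at a Bxb1 landing pad in HEK293 cells carrying an insulin core promoter-GFP reporter at a Flp-In site. Cells were sorted for the top 10% GFP about 14 days after transfection. Variant frequency log-ratios (select vs non-select, TileSeq) were rescaled so that the nonsense median is 0 and the synonymous median is 1, then averaged over biological replicates.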

AIRE transcriptional activation functional score, by site and new letter:
A33: L 0.173 ± 0.67; R -0.705 ± 0.25; W 0.679 ± 0.29; F 0.348 ± 0.42; S 0.0699 ± 0.49; E 0.898 ± 0.21; G 0.554 ± 0.5; C 0.846 ± 0.16; Y 0.238 ± 0.87; N 1.58 ± 0.065; P -0.0164 ± 0.67; T 0.426 ± 0.27; I -1.54 ± 0.91; D -1.07 ± 0.73; K -0.895 ± 0.42; V 1.53 ± 0.84
F26: V -0.0518 ± 0.31; L -0.13 ± 0.44; Y -0.359 ± 0.21; C -0.0618 ± 0.14; A -0.171 ± 0.064; I -0.664 ± 0.55; E -0.35 ± 0.31; G -0.298 ± 0.2; W 1.21 ± 0.12; T 0.422 ± 0.98; D 0.00972 ± 0.37; Q -2.95 ± 0.98; N 0.281 ± 0.066; P 0.00822 ± 0.41; S 0.0967 ± 0.64; H -0.678 ± 0.15; K -0.369 ± 0.25; R -0.107 ± 0.71; M -1 ± 0.31
A21: H 0.216 ± 0.22; Q -0.205 ± 0.34; V 0.278 ± 0.23; L -0.19 ± 0.3; N 0.54 ± 0.18; P 0.125 ± 0.7; S 0.0464 ± 0.33; G 0.0519 ± 0.54; M 0.432 ± 0.19; W -0.574 ± 0.14; R 0.00134 ± 0.6; I -0.0753 ± 0.15; T -0.00846 ± 0.33; Y 0.166 ± 0.29
V38: C 0.438 ± 0.22; I 1.55 ± 0.76; L 0.157 ± 0.43; N -0.701 ± 0.037; S -0.704 ± 0.47; Q -0.0109 ± 0.15; W -0.576 ± 0.14; K 0.354 ± 0.16; T 0.604 ± 0.24; Y 0.622 ± 0.26; P -0.205 ± 0.17; M 0.387 ± 0.074; R 0.941 ± 0.6; G -0.618 ± 0.43; D -0.427 ± 0.2; A -0.245 ± 0.75; F -0.138 ± 0.2
L28: D -0.558 ± 0.17; K 0.863 ± 0.19; I 0.53 ± 0.16; W -2.53 ± 0.92; H -2.61 ± 0.94; Y -0.212 ± 0.28; R 0.297 ± 0.54; V 0.05 ± 0.33; P 0.00884 ± 0.33; M 0.175 ± 0.25; G 0.239 ± 0.38; E -1.34 ± 0.96; N -1.05 ± 0.21; Q 0.552 ± 0.6; F -0.285 ± 0.14; A -0.115 ± 0.52; S -0.39 ± 0.52; T 0.6 ± 0.27; C -0.067 ± 0.3
H30: M 0.839 ± 0.14; N 0.384 ± 0.43; W -0.339 ± 0.39; A -0.75 ± 0.63; Y 1.23 ± 0.46; E 0.323 ± 0.48; L 0.0371 ± 0.59; R 0.24 ± 0.49; G 0.000219 ± 0.62; I -0.51 ± 0.27; S 0.156 ± 0.39; P -0.0919 ± 0.43; Q -0.357 ± 0.12; F 0.0787 ± 0.23; D 0.0821 ± 0.2; K 0.682 ± 0.08; V -0.417 ± 0.44; C 0.429 ± 0.26; T -0.172 ± 0.23
P39: V -1.34 ± 0.49; M -0.22 ± 0.14; S 0.402 ± 1.2; T 1.25 ± 0.41; Q 0.348 ± 0.4; K -0.314 ± 0.072; L -0.0747 ± 0.48; W 0.403 ± 0.26; F 1.34 ± 0.45; Y -1.28 ± 0.23; R 0.0519 ± 0.47; E 0.999 ± 0.066; A -0.568 ± 0.77; H 0.277 ± 0.43; G -0.241 ± 0.19
H35: I 0.107 ± 0.2; R -0.213 ± 0.43; P 0.148 ± 0.28; Y 0.805 ± 0.27; F 0.0268 ± 0.2; Q -0.305 ± 0.25; W 0.553 ± 0.31; M -0.719 ± 0.084; S 0.352 ± 0.36; C -0.102 ± 0.14; N 0.76 ± 0.11; A 0.00595 ± 0.49; K -0.196 ± 0.2; D -0.476 ± 0.17; T -0.0166 ± 0.64; E -0.848 ± 0.6; L -0.231 ± 0.32; V 0.15 ± 0.43; G 0.0779 ± 0.72
D34: M -1.08 ± 0.3; W -0.393 ± 0.11; H 1.62 ± 0.13; F 0.247 ± 0.14; Q -0.011 ± 0.19; E -2.11 ± 1.8; C -0.617 ± 0.33; S -0.594 ± 0.38; L 0.437 ± 0.75; T -1.22 ± 0.19; G 0.43 ± 0.24; V 0.0819 ± 0.32; Y -0.0055 ± 0.37; N 0.331 ± 0.084; R -0.24 ± 0.92; A -0.1 ± 0.32; P 0.782 ± 0.41; I -0.247 ± 0.39
V22: L 0.487 ± 0.64; E -1.03 ± 0.95; G -0.0564 ± 0.39; R 0.528 ± 0.83; S -0.103 ± 0.51; D -0.245 ± 0.35; C -0.0794 ± 0.063; F -0.0603 ± 0.13; N -0.13 ± 0.44; A 0.0736 ± 0.4; I 1.57 ± 0.55; H 0.157 ± 0.049; Y -0.0365 ± 0.39; M -0.505 ± 0.17; T -0.0112 ± 0.23; K -1.05 ± 0.071; W -0.0929 ± 0.089; P -0.118 ± 0.69
P27: T 0.0492 ± 0.53; R 0.196 ± 0.62; L 0.398 ± 0.14; V -0.229 ± 0.27; M -0.268 ± 0.094; H 0.254 ± 0.38; G 0.0337 ± 0.67; I 0.28 ± 0.099; S 0.41 ± 0.23; W 0.934 ± 0.087; D -0.285 ± 0.26; E -0.123 ± 0.26; K 0.0588 ± 0.14; C -0.00711 ± 0.11; Y -0.654 ± 0.33; Q 0.267 ± 0.15; A 0.562 ± 0.76; N 0.263 ± 0.048; F -0.037 ± 0.22
S24: Y 0.463 ± 0.17; H -0.0302 ± 0.21; F 0.0274 ± 0.26; V 0.582 ± 0.35; I 0.123 ± 0.15; C 0.658 ± 0.088; K 1.61 ± 0.099; M 1.04 ± 0.34; A -0.0275 ± 0.75; P -0.246 ± 0.32; Q -0.0656 ± 0.18; E 0.661 ± 0.12; W -0.0451 ± 0.22; T -0.0952 ± 0.28; L -0.159 ± 0.4; D 0.577 ± 0.078; G 0.358 ± 0.26; R 0.239 ± 0.83
L29: Y -0.0248 ± 0.12; K 0.34 ± 0.67; C -0.201 ± 0.2; P -0.138 ± 0.54; Q 0.317 ± 0.23; S -0.0413 ± 0.26; M -0.19 ± 0.15; I 0.187 ± 0.2; V 0.342 ± 0.35; R 0.468 ± 0.39; F -0.401 ± 0.47; W 0.224 ± 0.056; D -0.402 ± 0.66; T -0.208 ± 0.21; G -0.175 ± 0.35; A -0.0346 ± 0.34; N 0.195 ± 0.28; H -0.121 ± 0.22
D23: Q -0.673 ± 0.46; S 0.041 ± 0.23; H 1.33 ± 0.035; V -0.286 ± 0.3; G 0.031 ± 0.52; M 0.267 ± 0.36; Y -0.199 ± 0.28; C -0.0222 ± 0.1; T -0.174 ± 0.085; W -1 ± 0.21; K -0.339 ± 0.073; E 1.02 ± 0.71; N -0.303 ± 1.1; P -0.613 ± 0.43; I 0.125 ± 0.62; L -0.372 ± 0.55; R -0.0795 ± 0.48; F 0.3 ± 0.21; A -0.24 ± 0.37
L32: I -0.434 ± 1.1; A -0.972 ± 0.61; T -0.512 ± 0.21; P -0.841 ± 0.94; C -0.199 ± 0.51; R -0.205 ± 0.63; S -0.125 ± 0.35; M -0.0821 ± 0.26; V -0.331 ± 0.24; Q -0.665 ± 0.32; G -0.111 ± 0.79; W -1.32 ± 0.41; N -0.605 ± 0.18; F -0.313 ± 0.24; Y 0.28 ± 0.36; H -0.413 ± 0.21
D36: C -0.525 ± 0.023; F -0.636 ± 0.15; E 1.34 ± 0.57; L -0.0069 ± 0.61; H -1.75 ± 0.66; Q -0.178 ± 0.26; A 0.22 ± 0.32; I 0.0675 ± 0.45; Y 0.501 ± 0.13; M -0.672 ± 0.13; P 0.171 ± 0.53; R 0.583 ± 0.84; S 0.294 ± 0.28; T -0.367 ± 0.13; G 0.788 ± 0.32; N 1.07 ± 0.59; V -0.422 ± 0.26; W 0.641 ± 0.048; K 0.212 ± 0.12
E40: C -1.11 ± 0.58; A -0.436 ± 0.32; D 0.418 ± 0.94
A31: T -0.678 ± 1.2; Q 0.778 ± 0.11; N -0.416 ± 0.14; H -0.698 ± 0.13; S 0.0612 ± 0.88; L 0.635 ± 0.32; P -0.0989 ± 0.14; R -0.0467 ± 0.41; I 0.231 ± 0.82; C -0.0426 ± 0.23; G 0.0886 ± 0.44; V -0.00796 ± 0.32; W -0.0372 ± 0.065; Y 1.22 ± 0.37; D 0.894 ± 0.32; F -0.218 ± 0.19
V37: W -0.538 ± 0.062; R 0.122 ± 0.4; A -0.162 ± 0.092; H 0.218 ± 0.17; G 0.192 ± 0.36; D 0.512 ± 0.35; Y 0.262 ± 0.11; E -0.336 ± 0.2; F 0.178 ± 0.24; M -1.53 ± 0.17; S -0.316 ± 0.64; C -0.563 ± 0.26; K 0.536 ± 0.23; I 0.337 ± 0.18; L -0.0654 ± 0.45
A25: K 0.411 ± 0.087; G 0.475 ± 0.28; Q 0.196 ± 0.14; P 0.792 ± 0.57; L 1.16 ± 0.47; V 1.01 ± 0.52; F 0.583 ± 0.3; H -1.85 ± 0.26; W -0.59 ± 0.39; N -1.11 ± 0.26; I 0.925 ± 0.46; R 0.337 ± 0.71; T 0.533 ± 0.11; S 0.301 ± 0.39; Y -0.882 ± 0.51; D 0.297 ± 0.072; C 0.493 ± 0.17
